For series [1], the target named is heat-shock protein 90β (HSP90β), endogenous, in conditioned medium of SCp2 cells (UniProt P11499).
Series [2] concerns recombinant HSP90β (385903, Calbiochem/EMD Millipore).

Chain of Flag-tagged full-length human MMP3 (FL) (chain, as listed by the source): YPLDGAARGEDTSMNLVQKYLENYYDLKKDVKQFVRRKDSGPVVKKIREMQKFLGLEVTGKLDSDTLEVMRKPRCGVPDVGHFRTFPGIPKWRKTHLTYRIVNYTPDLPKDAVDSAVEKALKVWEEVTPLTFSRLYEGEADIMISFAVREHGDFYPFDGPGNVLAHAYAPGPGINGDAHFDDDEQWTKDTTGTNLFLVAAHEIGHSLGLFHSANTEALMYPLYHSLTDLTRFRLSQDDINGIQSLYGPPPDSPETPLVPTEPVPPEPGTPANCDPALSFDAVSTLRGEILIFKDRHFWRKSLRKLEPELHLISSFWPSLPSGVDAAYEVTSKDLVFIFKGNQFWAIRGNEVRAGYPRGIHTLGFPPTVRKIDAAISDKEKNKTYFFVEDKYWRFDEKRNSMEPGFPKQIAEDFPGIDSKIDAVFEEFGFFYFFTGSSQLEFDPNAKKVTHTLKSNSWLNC
Chain of heat-shock protein 90β (HSP90β), endogenous, in conditioned medium of SCp2 cells (P11499 2-724): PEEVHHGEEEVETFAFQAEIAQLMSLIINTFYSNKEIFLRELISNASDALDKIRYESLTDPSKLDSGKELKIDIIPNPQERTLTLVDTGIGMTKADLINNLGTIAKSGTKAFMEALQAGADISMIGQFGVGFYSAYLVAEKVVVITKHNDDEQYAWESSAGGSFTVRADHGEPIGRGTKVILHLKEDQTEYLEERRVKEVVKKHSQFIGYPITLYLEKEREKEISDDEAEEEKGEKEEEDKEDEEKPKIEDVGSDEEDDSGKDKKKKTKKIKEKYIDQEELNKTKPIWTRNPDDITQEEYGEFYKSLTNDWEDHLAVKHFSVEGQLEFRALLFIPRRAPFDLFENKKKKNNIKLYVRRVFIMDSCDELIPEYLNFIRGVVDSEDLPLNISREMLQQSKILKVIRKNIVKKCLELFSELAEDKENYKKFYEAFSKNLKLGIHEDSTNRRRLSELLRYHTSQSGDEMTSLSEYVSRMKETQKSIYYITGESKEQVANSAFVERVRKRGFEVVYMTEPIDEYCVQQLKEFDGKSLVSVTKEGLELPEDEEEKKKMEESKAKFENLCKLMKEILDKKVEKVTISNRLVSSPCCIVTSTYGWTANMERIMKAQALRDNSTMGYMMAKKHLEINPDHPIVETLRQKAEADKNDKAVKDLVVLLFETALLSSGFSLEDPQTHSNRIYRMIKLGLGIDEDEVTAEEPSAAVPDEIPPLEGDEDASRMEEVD

As for Flag-tagged full-length human MMP3 (FL), in series [1], the “invasion and branching (spatial network) of mammary organoids in 3D Col-1 gels with a function-blocking antibody against HSP90β” value was “blocking the extracellular HSP90β with inhibitory antibodies added to the medium abolished branching ability in all organoids, including controls”. Also, the “invasion and branching (spatial network) of mammary organoids in 3D Col-1 gels with recombinant HSP90β” value in series [2] is “The recombinant HSP90β added extracellularly enabled the secreted MMP3 to induce the most exuberant branched structures”.

The values are drawn from US20150079071.
